Data as given in ChEMBL document CHEMBL2074013, “Effect of 17 beta-estradiol-D-17 beta-glucuronide on the rat organic anion transporting polypeptide 2-mediated transport differs depending on substrates” (Drug Metab Dispos, 2002).

Substrate: C[C@H]1O[C@@H](O[C@H]2[C@@H](O)C[C@H](O[C@H]3[C@@H](O)C[C@H](O[C@H]4CC[C@@]5(C)[C@H](CC[C@@H]6[C@@H]5C[C@@H](O)[C@]5(C)[C@@H](C7=CC(=O)OC7)CC[C@]65O)C4)O[C@@H]3C)O[C@@H]2C)C[C@H](O)[C@@H]1O
Assay: cells, lysate or membranes named
Description: TP_TRANSPORTER: uptake in Oatp2-expressing LLC-PK1 cells

B1: Solute carrier organic anion transporter family member 1A4 (Rattus norvegicus) (protein)
chain: MGKSEKRVATHGVRCFAKIKMFLLALTCAYVSKSLSGTYMNSMLTQIERQFGIPTSIVGLINGSFEIGNLLLIIFVSYFGTKLHRPIMIGVGCAVMGLGCFLISLPHFLMGQYEYETILPTSNVSSNSFFCVENRSQTLNPTQDPSECVKEMKSLMWIYVLVGNIIRGIGETPIMPLGISYIEDFAKSENSPLYIGILETGMTIGPLIGLLLASSCANIYVDIESVNTDDLTITPTDTRWVGAWWIGFLVCAGVNILTSFPFFFFPKTLPKEGLQENVDGTENAKEKKHRKKAKEEKRGITKDFFVFMKSLSCNPIYMLFILISVLQFNAFINSFTFMPKYLEQQYGKSTAEVVFLMGLYMLPPICLGYLIGGLIMKKFKVTVKKAAHLAFWLCLSEYLLSFLSYVMTCDNFPVAGLTTSYEGVQHQLYVENKVLADCNTRCNCSTNTWDPVCGDNGLAYMSACLAGCEKSVGTGTNMVFQNCSCIQSSGNSSAVLGLCNKGPDCANKLQYFLIIAIFGCFIYSLAGIPGYMVLLRCIKSEEKSLGVGLHAFCIRILAGIPAPIYFGALIDRTCLHWGTLKCGEPGACRMYDINSFRRLYLGLPAALRGASFVPAFFILRLTRTFQFPGDIESSKTDHAEMKLTLKESECTEVLRSKVTED
B1 gave a Km of 1.07 µM.
